Laboratory results taken from US11278600B2, “Human alpha-galactosidase variants” (Codexis, Inc., priority 2014, dated 2022).

B1: 564 (protein)
chain: LDNGLARTPTMGWLHWERFMCNLDCQEEPDSCISEKLFMEMAERMVSEGWKDAGYEYLCIDDCWMAPQRDSEGRLQADPQRFPHGIRQLANHVHSKGLKLGIYADVGNKTCAGFPGSFGYYDIDAQTFADWGVDLLKFDGCYCDSLENLADGYKHMSLALNRTGRSIVYSCEWPLYMWPFQKPNYTEIRQYCNHWRNFADIDDSWASIKSILDWTSRNQERIVDVAGPGGWNDPDMLVIGNFGLSWDQQVTQMALWAIMAAPLFMSNDLRHISPQAKALLQDKDVIAINQDPLGKQGYQLRKGDNFEVWERPLSGDAWAVAIINRQEIGGPRSYTIPVASLGKGVACNPACFITQLLPVKRQLGFYNVTSRLKSHINPTGTVLLQLENTMQMSLKDLL
modifications: Synthetic Polypeptide sequence of Variant No. 564 of mature Human GLA
B2: 568 (protein)
chain: LDNGLARTPTMGWLHWERFMCNLDCQEEPDSCISEKLFMEMAERMVSEGWKDAGYEYLCIDDCWMAPQRDSEGRLQADPQRFPHGIRQLANHVHSKGLKLGIYADVGNKTCAGFPGSFGYYDIDAQTFADWGVDLLKFDGCYCDSLENLADGYKHMSLALNRTGRSIVYSCEWPLYMWPFQKPNYTEIRQYCNHWRNFADIDDSWASIKSILDWTSRNQERIVDVAGPGGWNDPDMLVIGNFGLSWDQQVTQMALWAIMAAPLFMSNDLRHISPQAKALLQDKDVIAINQDPLGKQGYQLRKGDNFEVWERPLSGDAWAVAIINRQEIGGPRSYTIPVASLGKGVACRPACFITQLLPVKRQLGFYNWTSRLKSHINPTGTVLLQLENTMQMSLKDLL
modifications: Synthetic Polypeptide sequence of Variant No. 568 of mature Human GLA
B3: 570 (protein)
chain: LDNGLARTPTMGWLHWERFMCNLDCQEEPDSCISEKLFMEMAERMVSEGWKDAGYEYLCIDDCWMAPQRDSEGRLQADPQRFPHGIRQLANHVHSKGLKLGIYADVGNKTCAGFPGSFGYYDIDAQTFADWGVDLLKFDGCYCDSLENLADGYKHMSLALNRTGRSIVYSCEWPLYMWPFQKPNYTEIRQYCNHWRNFADIDDSWASIKSILDWTSRNQERIVDVAGPGGWNDPDMLVIGNFGLSWDQQVTQMALWAIMAAPLFMSNDLRHISPQAKALLQDKDVIAINQDPLGKQGYQLRKGDNFEVWERPLSGDAWAVAIINRQEIGGPRSYTIPVASLGKGVACNPACFISQLLPVKRQLGFYNWTSRLKSHINPTGTVLLQLENTMQMSLKDLL
modifications: Synthetic Polypeptide sequence of Variant No. 570 of mature Human GLA
B4: 567 (protein)
chain: LDNGLARTPTMGWLHWERFMCNLDCQEEPDSCISEKLFMEMAERMVSEGWKDAGYEYLCIDDCWMAPQRDSEGRLQADPQRFPHGIRQLANHVHSKGLKLGIYADVGNKTCAGFPGSFGYYDIDAQTFADWGVDLLKFDGCYCDSLENLADGYKHMSLALNRTGRSIVYSCEWPLYMWPFQKPNYTEIRQYCNHWRNFADIDDSWASIKSILDWTSRNQERIVDVAGPGGWNDPDMLVIGNFGLSWDQQVTQMALWAIMAAPLFMSNDLRHISPQAKALLQDKDVIAINQDPLGKQGYQLRKGDNFEVWERPLSGDAWAVAIINRQEIGGPRSYTIPVASLGKGVACQPACFITQLLPVKRQLGFYNWTSRLKSHINPTGTVLLQLENTMQMSLKDLL
modifications: Synthetic Polypeptide sequence of Variant No. 567 of mature Human GLA
B5: 569 (protein)
chain: LDNGLARTPTMGWLHWERFMCNLDCQEEPDSCISEKLFMEMAERMVSEGWKDAGYEYLCIDDCWMAPQRDSEGRLQADPQRFPHGIRQLANHVHSKGLKLGIYADVGNKTCAGFPGSFGYYDIDAQTFADWGVDLLKFDGCYCDSLENLADGYKHMSLALNRTGRSIVYSCEWPLYMWPFQKPNYTEIRQYCNHWRNFADIDDSWASIKSILDWTSRNQERIVDVAGPGGWNDPDMLVIGNFGLSWDQQVTQMALWAIMAAPLFMSNDLRHISPQAKALLQDKDVIAINQDPLGKQGYQLRKGDNFEVWERPLSGDAWAVAIINRQEIGGPRSYTIPVASLGKGVACWPACFITQLLPVKRQLGFYNWTSRLKSHINPTGTVLLQLENTMQMSLKDLL
modifications: Synthetic Polypeptide sequence of Variant No. 569 of mature Human GLA
B6: 571 (protein)
chain: LDNGLARTPTMGWLHWERFMCNLDCQEEPDSCISEKLFMEMAERMVSEGWKDAGYEYLCIDDCWMAPQRDSEGRLQADPQRFPHGIRQLANHVHSKGLKLGIYADVGNKTCAGFPGSFGYYDIDAQTFADWGVDLLKFDGCYCDSLENLADGYKHMSLALNRTGRSIVYSCEWPLYMWPFQKPNYTEIRQYCNHWRNFADIDDSWASIKSILDWTSRNQERIVDVAGPGGWNDPDMLVIGNFGLSWDQQVTQMALWAIMAAPLFMSNDLRHISPQAKALLQDKDVIAINQDPLGKQGYQLRKGDKFEVWERPLSGDAWAVAIINRQEIGGPRSYTIPVASLGKGVACNPACFITQLLPVKRQLGFYNWTSRLKSHINPTGTVLLQLENTMQMSLKDLL
modifications: Synthetic Polypeptide sequence of Variant No. 571 of mature Human GLA
B7: 565 (protein)
chain: LDNGLARTPTMGWLHWERFMCNLDCQEEPDSCISEKLFMEMAERMVSEGWKDAGYEYLCIDDCWMAPQRDSEGRLQADPQRFPHGIRQLANHVHSKGLKLGIYADVGNKTCAGFPGSFGYYDIDAQTFADWGVDLLKFDGCYCDSLENLADGYKHMSLALNRTGRSIVYSCEWPLYMWPFQKPNYTEIRQYCNHWRNFADIDDSWASIKSILDWTSRNQERIVDVAGPGGWNDPDMLVIGNFGLSWDQQVTQMALWAIMAAPLFMSNDLRHISPQAKALLQDKDVIAINQDPLGKQGYQLRKGDNFEVWERPLSGDAWAVAIINRQEIGGPRSYTIPVASLGKGVACEPACFITQLLPVKRQLGFYNWTSRLKSHINPTGTVLLQLENTMQMSLKDLL
modifications: Synthetic Polypeptide sequence of Variant No. 565 of mature Human GLA
B8: 566 (protein)
chain: LDNGLARTPTMGWLHWERFMCNLDCQEEPDSCISEKLFMEMAERMVSEGWKDAGYEYLCIDDCWMAPQRDSEGRLQADPQRFPHGIRQLANHVHSKGLKLGIYADVGNKTCAGFPGSFGYYDIDAQTFADWGVDLLKFDGCYCDSLENLADGYKHMSLALNRTGRSIVYSCEWPLYMWPFQKPNYTEIRQYCNHWRNFADIDDSWASIKSILDWTSRNQERIVDVAGPGGWNDPDMLVIGNFGLSWDQQVTQMALWAIMAAPLFMSNDLRHISPQAKALLQDKDVIAINQDPLGKQGYQLRKGDNFEVWERPLSGDAWAVAIINRQEIGGPRSYTIPVASLGKGVACMPACFITQLLPVKRQLGFYNWTSRLKSHINPTGTVLLQLENTMQMSLKDLL
modifications: Synthetic Polypeptide sequence of Variant No. 566 of mature Human GLA

Assays:
Type in all cases: biochemical
[1] = HTP-analysis of yeast culture supernatants, no challenge (MUGal hydrolysis); conditions: activity of the variant/activity of Rd3BB (SEQ ID NO: 13)
How it was run: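 GLA variants were expressed in INVSc1 yeast grown in SD-Ura broth with glucose at 30° C., and culture supernatants were collected after 66-84 h. Supernatant was mixed with McIlvaine buffer pH 4.8 and MUGal (2 mM stock) in 50 mM citrate, 200 mM KCl, pH 4.6, incubated at 37° C. for 30-180 minutes, then quenched with sodium carbonate.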

[2] = HTP-analysis of supernatants pretreated with base (MUGal hydrolysis); conditions: activity of the variant/activity of Rd3BB (SEQ ID NO: 13); challenge at pH 9.7
How it was run: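 GLA variants secreted from yeast INVSc1; culture supernatants pre-incubated with McIlvaine buffer pH 7.0–8.2 or 200 mM bicarbonate pH 9.1–9.7 at 37° C. for 1–18 h. Residual activity: MUGal (4 mM stock) hydrolysis at pH 4.3–4.8, 37° C., 30–180 min, carbonate quench; fluorescence Ex 355/Em 448 nm.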

[3] = HTP-analysis of supernatants pretreated with acid (MUGal hydrolysis); conditions: activity of the variant/activity of Rd3BB (SEQ ID NO: 13); challenge at pH 3.7
How it was run: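 MUGal hydrolysis was tracked by fluorescence (Ex 355 nm, Em 448 nm) after a 30-180 min reaction at 37° C. in pH 4.8 McIlvaine/citrate buffer, stopped with 1 M sodium carbonate. Beforehand, yeast (INVSc1) culture supernatants carrying GLA variants were held 1-3 h at 37° C. in acidic McIlvaine buffer, pH 3.3-4.3.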

Molecule | Relative Activity of GLA Variants After No Challenge (NC) [1] | Relative Activity of GLA Variants After Challenge at pH 9.7 [2] | Relative Activity of GLA Variants After Challenge at pH 3.7 [3]
B1 | + (+ = 1.5 to 5 relative activity over Rd3BB (SEQ ID NO: 13)) | ++ (++ = >5 to 10 relative activity over Rd3BB (SEQ ID NO: 13)) | + (+ = 1.5 to 5 relative activity over Rd3BB (SEQ ID NO: 13))
B2 | + (+ = 1.5 to 5 relative activity over Rd3BB (SEQ ID NO: 13)) | ++ (++ = >5 to 10 relative activity over Rd3BB (SEQ ID NO: 13)) | + (+ = 1.5 to 5 relative activity over Rd3BB (SEQ ID NO: 13))
B3 | + (+ = 1.5 to 5 relative activity over Rd3BB (SEQ ID NO: 13)) | ++ (++ = >5 to 10 relative activity over Rd3BB (SEQ ID NO: 13)) | + (+ = 1.5 to 5 relative activity over Rd3BB (SEQ ID NO: 13))
B4 | + (+ = 1.5 to 5 relative activity over Rd3BB (SEQ ID NO: 13)) | ++ (++ = >5 to 10 relative activity over Rd3BB (SEQ ID NO: 13)) | + (+ = 1.5 to 5 relative activity over Rd3BB (SEQ ID NO: 13))
B5 | + (+ = 1.5 to 5 relative activity over Rd3BB (SEQ ID NO: 13)) | ++ (++ = >5 to 10 relative activity over Rd3BB (SEQ ID NO: 13)) | + (+ = 1.5 to 5 relative activity over Rd3BB (SEQ ID NO: 13))
B6 | + (+ = 1.5 to 5 relative activity over Rd3BB (SEQ ID NO: 13)) | ++ (++ = >5 to 10 relative activity over Rd3BB (SEQ ID NO: 13)) | + (+ = 1.5 to 5 relative activity over Rd3BB (SEQ ID NO: 13))
B7 | + (+ = 1.5 to 5 relative activity over Rd3BB (SEQ ID NO: 13)) | ++ (++ = >5 to 10 relative activity over Rd3BB (SEQ ID NO: 13)) | + (+ = 1.5 to 5 relative activity over Rd3BB (SEQ ID NO: 13))
B8 | + (+ = 1.5 to 5 relative activity over Rd3BB (SEQ ID NO: 13)) | ++ (++ = >5 to 10 relative activity over Rd3BB (SEQ ID NO: 13)) | + (+ = 1.5 to 5 relative activity over Rd3BB (SEQ ID NO: 13))
